Laboratory results reported in patent US20240369485A1, “FLUORESCENT SENSOR FOR MONITORING CALCIUM DYNAMICS” (priority 2021, published 2024).

Tests used:
[1] = Calcium (Ca^2+) binding assay: fluorescence/absorbance titration of purified protein; conditions: for Aholo/Aapo: absorbance at 569
Experimental: Calcium (Ca^2+) binding assay. 10 μM protein samples of mApple, EGFP, and mCherry variants were titrated with different concentrations of Ca^2+. Data were fitted with a 1:1 binding equation. Fluorescence intensities were collected using a Spectrofluorimeter (Photon Technology International, Inc.) and the absorbance values of Ca^2+-free and Ca^2+-loaded forms were determined using a Shimadzu UV-1601 spectrophotome.
Ca^2+ binding assay. Fluorescence measurements of mApple variants with increasing Ca^2+ concentrations were done in order to obtain the affinity of the sensor for Ca^2+ in vitro. Samples of 10 μM mApple variants with 5 μM EGTA were prepared in triplicate in 1 mL volumes in 10 mM Tris, pH 7.4. The samples were placed in quartz fluorescence cuvettes, and metal ion was titrated into each sample, in a stepwise manner, using 0.1 M and 1 M metal stock solutions. The fluorescence response of the indicator to increasing Ca^2+ concentrations was monitored using a fluorescence spectrophotometer (Photon Technology International, Canada) with the Felix32 fluorescence analysis software. The absorbance spectra before and after titration were obtained using a Shimadzu UV-1601 spectrophotometer.

[2] = pKa determination of the chromophore; assay type: physicochemical
Experimental: pKa determination. To measure the chromophore pKa of mApple, EGFP, and mCherry variants, the proteins were prepared in buffers (sodium acetate buffer for pH 3-5, MES buffer for pH 5-6, HEPES buffer for pH 6.5-8, TRIS buffer for pH 8.5-9) covering a pH range from 3 to 10. All samples were Incubated at 4° C. overnight, then the following day, the absorbance and fluorescence spectra were collected using a Shimadzu UV-1601 spectrophotometer and the Spectrofluorimeter.

[3] = Quantum yield, extinction coefficient, and brightness determination; assay type: physicochemical; parameters: key to Brightness: extinction coefficient × quantum yield
Experimental: Quantum yield, extinction coefficient, and brightness determination. The quantum yield values of all the variants were determined by measuring the emitted fluorescence intensities and absorbance intensities of the chromophore at different protein concentrations. The wildtype was used as a reference to calculate quantum yield. Brightness was defined as a visual perception in which a source appears to emit or reflect a given amount of light, which was obtained by multiplying the extinction coefficient and the quantum yield.

[4] = mCherry based indicators, Ca^2+ induced fluorescence change

B1: mApple: red fluorescent scaffold protein, SEQ ID NO: 11 (protein)
chain: EENNMAIIKEFMRFKVHMEGSVNGHEFEIEGEGEGRPYEAFQTAKLKVTKGGPLPFAWDILSPQFMYGSKVYIKHPADIPDYFKLSFPEGFRWERVMNFEDGGIIHVNQDSSLQDGVFIYKVKLRGTNFPSDGPVMQKKTMGWEASEERMYPEDGALKSEIKKRLKLKDGGHYAAEVKTTYKAKKPVQLPGAYIVDIKLDIVSHNEDYTIVEQYERAEGRHSTGGMDELYK
- Fmax/Fmin ([1]; EGFP and mApple variants): 1.02
- Aholo/Aapo [1]: 1.07 (569)
- pka ([2]; scaffold, no apo/holo stated): 6.26 ± 0.23
- Brightness ([3]; scaffold, no apo/holo stated): 0.37 ± 0.01
- Extinction coefficient ([3]; scaffold, no apo/holo stated): 75000 M⁻¹ cm⁻¹
- Fluorescence quantum yield ([3]; scaffold, no apo/holo stated): 0.49 ± 0.01

B2: mApple A145E/K198D/R216E/E218D: mApple variant, SEQ ID NO: 29 (protein)
chain: EENNMAIIKEFMRFKVHMEGSVNGHEFEIEGEGEGRPYEAFQTAKLKVTKGGPLPFAWDILSPQFMYGSKVYIKHPADIPDYFKLSFPEGFRWERVMNFEDGGIIHVNQDSSLQDGVFIYKVKLRGTNFPSDGPVMQKKTMGWEESEERMYPEDGALKSEIKKRLKLKDGGHYAAEVKTTYKAKKPVQLPGAYIVDIDLDIVSHNEDYTIVEQYEEADGRHSTGGMDELYK
- Fmax/Fmin ([1]; EGFP and mApple variants): 2.64
- Aholo/Aapo [1]: 1.59 (569)

B3: mApple A145D/K198D/R216E: mApple variant, SEQ ID NO: 26 (protein)
chain: EENNMAIIKEFMRFKVHMEGSVNGHEFEIEGEGEGRPYEAFQTAKLKVTKGGPLPFAWDILSPQFMYGSKVYIKHPADIPDYFKLSFPEGFRWERVMNFEDGGIIHVNQDSSLQDGVFIYKVKLRGTNFPSDGPVMQKKTMGWEDSEERMYPEDGALKSEIKKRLKLKDGGHYAAEVKTTYKAKKPVQLPGAYIVDIDLDIVSHNEDYTIVEQYEEAEGRHSTGGMDELYK
- Fmax/Fmin ([1]; EGFP and mApple variants): 3.75
- Aholo/Aapo [1]: 1.57 (569)

B4: mApple A145D/E147D/K198D/R216E: mApple variant, SEQ ID NO: 28 (protein)
chain: EENNMAIIKEFMRFKVHMEGSVNGHEFEIEGEGEGRPYEAFQTAKLKVTKGGPLPFAWDILSPQFMYGSKVYIKHPADIPDYFKLSFPEGFRWERVMNFEDGGIIHVNQDSSLQDGVFIYKVKLRGTNFPSDGPVMQKKTMGWEDSDERMYPEDGALKSEIKKRLKLKDGGHYAAEVKTTYKAKKPVQLPGAYIVDIDLDIVSHNEDYTIVEQYEEAEGRHSTGGMDELYK
- Fmax/Fmin ([1]; EGFP and mApple variants): 3.23
- Aholo/Aapo [1]: 1.84 (569)

B5: mApple A145E/E147D/K198D/R216E: mApple variant, SEQ ID NO: 27 (protein)
chain: EENNMAIIKEFMRFKVHMEGSVNGHEFEIEGEGEGRPYEAFQTAKLKVTKGGPLPFAWDILSPQFMYGSKVYIKHPADIPDYFKLSFPEGFRWERVMNFEDGGIIHVNQDSSLQDGVFIYKVKLRGTNFPSDGPVMQKKTMGWEESDERMYPEDGALKSEIKKRLKLKDGGHYAAEVKTTYKAKKPVQLPGAYIVDIDLDIVSHNEDYTIVEQYEEAEGRHSTGGMDELYK
- Fmax/Fmin ([1]; EGFP and mApple variants): 4.43
- Aholo/Aapo [1]: 1.66 (569)

B6: mApple A145E/K198E/R216E: mApple variant, SEQ ID NO: 30 (protein)
chain: EENNMAIIKEFMRFKVHMEGSVNGHEFEIEGEGEGRPYEAFQTAKLKVTKGGPLPFAWDILSPQFMYGSKVYIKHPADIPDYFKLSFPEGFRWERVMNFEDGGIIHVNQDSSLQDGVFIYKVKLRGTNFPSDGPVMQKKTMGWEESEERMYPEDGALKSEIKKRLKLKDGGHYAAEVKTTYKAKKPVQLPGAYIVDIELDIVSHNEDYTIVEQYEEAEGRHSTGGMDELYK
- Fmax/Fmin ([1]; EGFP and mApple variants): 2.15
- Aholo/Aapo [1]: 1.04 (569)

B7: mApple K198D/R216D: mApple variant, SEQ ID NO: 24 (protein)
chain: EENNMAIIKEFMRFKVHMEGSVNGHEFEIEGEGEGRPYEAFQTAKLKVTKGGPLPFAWDILSPQFMYGSKVYIKHPADIPDYFKLSFPEGFRWERVMNFEDGGIIHVNQDSSLQDGVFIYKVKLRGTNFPSDGPVMQKKTMGWEASEERMYPEDGALKSEIKKRLKLKDGGHYAAEVKTTYKAKKPVQLPGAYIVDIDLDIVSHNEDYTIVEQYEDAEGRHSTGGMDELYK
- Fmax/Fmin ([1]; EGFP and mApple variants): 2.48
- Aholo/Aapo [1]: 2.21 (569)
- pka ([2]; Apo): 7.04 ± 0.11
- pka ([2]; Holo): 6.56 ± 0.11
- Brightness ([3]; Apo): 0.15 ± 0.01
- Extinction coefficient ([3]; Apo): 38000 M⁻¹ cm⁻¹
- Fluorescence quantum yield ([3]; Apo): 0.40 ± 0.01
- Brightness ([3]; Holo): 0.37 ± 0.01
- Extinction coefficient ([3]; Holo): 65000 M⁻¹ cm⁻¹
- Fluorescence quantum yield ([3]; Holo): 0.58 ± 0.01

B8: mApple K198D: mApple variant, SEQ ID NO: 23 (protein)
chain: EENNMAIIKEFMRFKVHMEGSVNGHEFEIEGEGEGRPYEAFQTAKLKVTKGGPLPFAWDILSPQFMYGSKVYIKHPADIPDYFKLSFPEGFRWERVMNFEDGGIIHVNQDSSLQDGVFIYKVKLRGTNFPSDGPVMQKKTMGWEASEERMYPEDGALKSEIKKRLKLKDGGHYAAEVKTTYKAKKPVQLPGAYIVDIDLDIVSHNEDYTIVEQYERAEGRHSTGGMDELYK
- Fmax/Fmin ([1]; EGFP and mApple variants): 1.17
- Aholo/Aapo [1]: 1.41 (569)
- pka ([2]; Apo): 6.68 ± 0.09
- pka ([2]; Holo): 6.90 ± 0.12
- Brightness ([3]; Apo): 0.32 ± 0.01
- Extinction coefficient ([3]; Apo): 59000 M⁻¹ cm⁻¹
- Fluorescence quantum yield ([3]; Apo): 0.54 ± 0.01
- Brightness ([3]; Holo): 0.42 ± 0.03
- Extinction coefficient ([3]; Holo): 69000 M⁻¹ cm⁻¹
- Fluorescence quantum yield ([3]; Holo): 0.61 ± 0.03

B9: mCherry A145E/N196D/K198D: mCherry based indicator attempt, 4 negatively charged residues (protein)
chain: EEDNMAIIKEFMRFKVHMEGSVNGHEFEIEGEGEGRPYEGTQTAKLKVTKGGPLPFAWDILSPQFMYGSKAYVKHPADIPDYLKLSFPEGFKWERVMNFEDGGVVTVTQDSSLQDGEFIYKVKLRGTNFPSDGPVMQKKTMGWEESSERMYPEDGALKGEIKQRLKLKDGGHYDAEVKTTYKAKKPVQLPGAYNVDIDLDITSHNEDYTIVEQYERAEGRHSTGGMDELYK
- Fmax/Fmin [1, 4]: 0.93 ± 0.02

B10: mCherry A145E/N196D/K198D/R216E: mCherry based indicator attempt, 5 negatively charged residues (protein)
chain: EEDNMAIIKEFMRFKVHMEGSVNGHEFEIEGEGEGRPYEGTQTAKLKVTKGGPLPFAWDILSPQFMYGSKAYVKHPADIPDYLKLSFPEGFKWERVMNFEDGGVVTVTQDSSLQDGEFIYKVKLRGTNFPSDGPVMQKKTMGWEESSERMYPEDGALKGEIKQRLKLKDGGHYDAEVKTTYKAKKPVQLPGAYNVDIDLDITSHNEDYTIVEQYEEAEGRHSTGGMDELYK
- Fmax/Fmin [1, 4]: 1.05 ± 0.06
